How the values were obtained:
Format in all cases: cell-based
[1] = test system: NFkB binding site reporter (3x-NFkB TK.LUC) in HepG2 cells; experiment: NFkB-luciferase reporter assay in IL-1β-stimulated transfected HepG2 cells; conditions: IL-1β and estradiol
Method: FIG. 7A is a graphic illustration of the effect of estradiol stimulation of full-length hERβ (hERβL) and truncated hERβ (hERβT) on NFkB activation in HepG2 cells. Cells were transfected with either hERβL or hERβT and co-transfected with a luciferase reporter plasmid containing three copies of an NFkB binding site (3×-NFkB TK.LUC) and a control β-galactosidase plasmid. Cells were stimulated with interleukin-1β and incubated in the absence or presence of estradiol, after which luciferase activity was measured and normalized to β-galactosidase activity. FIG. 7B is a graphic illustration of luciferase activity in cells transfected with either hERβL or hERβT and co-transfected with a luciferase reporter plasmid lacking an NFkB binding site (TK.LUC).
In a separate experiment, HepG2 cells were transfected with hERβT or […] as above, but the reporter gene consisted of three copies of an NFkB binding site upstream of the TK basal promoter. Transfected cells were incubated with or without interleukin-1β (IL-1β) to activate NFkB and/or with estradiol prior to luciferase determination.

[2] = test system: ERE (ERE.TK.LUC reporter) in HepG2 cells; experiment: ERE-luciferase reporter transactivation in transfected HepG2 cells; conditions: in the presence of estradiol
Method: FIG. 6A is a graphic illustration of the transcriptional activation capacity of full-length hERβ (hERβL) and truncated hERβ (hERβT) expressed in HepG2 cells. Cells were transfected with either hERβL or hERβT and co-transfected with a luciferase reporter plasmid containing an estrogen response element (ERE) (ERE.TK.LUC) and a control β-galactosidase plasmid. Cells were incubated in the absence or presence of estradiol, after which luciferase activity was measured and normalized to β-galactosidase activity. FIG. 6B is a graphic illustration of luciferase activity in HepG2 cells transfected with either hERβL or hERβT and co-transfected with a luciferase reporter plasmid lacking an ERE (TK.LUC)
HepG2 cells (ATCC) were transfected in parallel with either pcDNA3-hERβL or pcDNA3-hERβT using the calcium phosphate co-precipitation method. Cells were co-transfected with a reporter plasmid containing a luciferase gene preceded by either an ERE upstream of the thymidine kinase (TK) basal promoter, or the TK basal promoter alone. […] Luciferase activity was measured by a chemiluminescent method using the Promega luciferase assay system, and β-galactosidase activity was measured by Galactolight (Tropix, Inc., Bedford Mass.); luciferase activity was then normalized to β-galactosidase activity.

[3] = test system: ERE-reporter gene in HAECT-1 cells; experiment: ERE-luciferase reporter transactivation in HAECT-1 human endothelial cells; conditions: 100 nM 17-β estradiol overnight
Method: FIG. 8 is a graphic illustration of the transcriptional activation capacity of full-length hERβ (hERβL) and truncated hERβ (hERβT) expressed in HAECT-1 human endothelial cells. Cells were transfected with either hERβL or hERβT and co-transfected with a luciferase reporter plasmid containing an ERE (ERE.TK.LUC) or one lacking an ERE (TK.LUC). Cells were incubated in the absence or presence of estradiol, after which luciferase activity was measured. ERE TK.LUC values were normalized to TK.LUC values and are presented as mean±S.E. (n=4).
HAECT-1 cells (a clonal immortalized human aortic endothelia cell line derived by infection with Ad5 ori-SV40 ts A209) were transfected with pcDNA3hERβT or pcDNA3-hERβL and ERE-luciferase plasmids by electroporation. After 4 hours, the cells were treated overnight with or without 100 nM 17-β estradiol prior to luciferase activity measurements. […] In independent experiments, cells transfected under identical conditions were monitored for their levels of estrogen receptors using a ligand binding assay.

[4] = test system: ERE-LacZ reporter (YRpE2) in S. cerevisiae strain BJ2168; experiment: ERE-LacZ reporter assay in yeast; conditions: 17-β estradiol or Genistein for 3 hours

B1: hERβT: truncated human estrogen receptor-β lacking the first 45 amino acids (Clone 3) (protein, UniProt Q92731 46-530, looked up, fragment)
chain: MTFYSPAVMNYSIPSNVTNLEGGPGRQTTSPNVLWPTPGHLSPLVVHRQLSHLYAEPQKSPWCEARSLEHTLPVNRETLKRKVSGNRCASPVTGPGSKRDAHFCAVCSDYASGYHYGVWSCEGCKAFFKRSIQGHNDYICPATNQCTIDKNRRKSCQACRLRKCYEVGMVKCGSRRERCGYRLVRRQRSADEQLHCAGKAKRSGGHAPRVRELLLDALSPEQLVLTLLEAEPPHVLISRPSAPFTEASMMMSLTKLADKELVHMISWAKKIPGFVELSLFDQVRLLESCWMEVLMMGLMWRSIDHPGKLIFAPDLVLDRDEGKCVEGILEIFDMLLATTSRFRELKLQHKEYLCVKAMILLNSSMYPLVTATQDADSSRKLAHLLNAVTDALVWVIAKSGISSQQQSMRLANLLMLLSHVRHASNKGMEHLLNMKCKNVVPVYDLLLEMLNAHVLRGCKSSITGSECSPAEDSKSKEGSQNPQSQ
For B1, the “attenuation of IL-1β-mediated NFkB transcriptional activation” value [1] was “no inhibitory activity”.

B2: hERβL: full-length human estrogen receptor-β of 530 amino acid residues, SEQ ID NO:2 (protein)
chain: MDIKNSPSSLNSPSSYNCSQSILPLEHGSIYIPSSYVDSHHEYPAMTFYSPAVMNYSIPSNVTNLEGGPGRQTTSPNVLWPTPGHLSPLVVHRQLSHLYAEPQKSPWCEARSLEHTLPVNRETLKRKVSGNRCASPVTGPGSKRDAHFCAVCSDYASGYHYGVWSCEGCKAFFKRSIQGHNDYICPATNQCTIDKNRRKSCQACRLRKCYEVGMVKCGSRRERCGYRLVRRQRSADEQLHCAGKAKRSGGHAPRVRELLLDALSPEQLVLTLLEAEPPHVLISRPSAPFTEASMMMSLTKLADKELVHMISWAKKIPGFVELSLFDQVRLLESCWMEVLMMGLMWRSIDHPGKLIFAPDLVLDRDEGKCVEGILEIFDMLLATTSRFRELKLQHKEYLCVKAMILLNSSMYPLVTATQDADSSRKLAHLLNAVTDALVWVIAKSGISSQQQSMRLANLLMLLSHVRHASNKGMEHLLNMKCKNVVPVYDLLLEMLNAHVLRGCKSSITGSECSPAEDSKSKEGSQNPQSQ
modifications: Human
With B2 the “activity relative to hERβT (ERE activity)” value [2] was “about 3 fold”, the “activity in activating the ERE-reporter gene relative to hERβT” value [3] was 2–3 times and the “maximal level of estrogen-stimulated LacZ expression relative to hERβT-transformed cells” value [4] was 2 fold. For the same molecule, the “attenuation of IL-1β-mediated NFkB transcriptional activation” value [1] was “capable of attenuating”.

Reference: US7157568B1, “Human estrogen receptor-β” (American Home Products Corporation, priority 1997, dated 2007)
